Assay results from patent US20250382344A1, “Soluble GLP1/GIP/NPY2 Receptor Triple Agonists” (Boehringer Ingelheim International GmH, priority 2024, published 2025).
*1 amine or outer side, *2 acyl side, *3 side chain or, on linkers, in order; H or OH if unused. Where no end group is shown, it is not given here. Side-chain parts run from the residue outwards. [ ]: non-standard residue; d: D form. The star is where a group is joined. C20 diacid = O=C(O)CCCCCCCCCCCCCCCCCCC(=O)*; C18 diacid = O=C(O)CCCCCCCCCCCCCCCCC(=O)*; γGlu = O=C(O)[C@H](CCC(=O)[*:2])N[*:1]; NMeQ = CN[C@@H](CCC(N)=O)C(=O)O; dtOrn = not defined here; AEEA = NCCOCCOCC(=O)O; Aib = CC(C)(N)C(=O)O

T1: human GIP receptor (human, UniProt P48546 22-466)
T1 sequence (looked up): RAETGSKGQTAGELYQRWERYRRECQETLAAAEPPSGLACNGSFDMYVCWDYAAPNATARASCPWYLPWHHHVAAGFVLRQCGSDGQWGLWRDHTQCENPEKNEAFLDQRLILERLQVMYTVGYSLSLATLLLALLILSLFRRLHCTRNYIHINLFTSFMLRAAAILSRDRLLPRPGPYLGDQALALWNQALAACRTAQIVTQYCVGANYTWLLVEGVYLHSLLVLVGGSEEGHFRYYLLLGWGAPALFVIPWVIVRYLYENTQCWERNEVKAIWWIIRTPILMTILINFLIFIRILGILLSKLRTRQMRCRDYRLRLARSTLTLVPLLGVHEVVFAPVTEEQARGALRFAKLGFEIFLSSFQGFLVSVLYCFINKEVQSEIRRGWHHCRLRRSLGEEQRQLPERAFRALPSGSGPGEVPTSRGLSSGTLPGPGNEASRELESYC

T2: human neuropeptide Y2 receptor (human, UniProt P49146 1-381)
T2 sequence (looked up): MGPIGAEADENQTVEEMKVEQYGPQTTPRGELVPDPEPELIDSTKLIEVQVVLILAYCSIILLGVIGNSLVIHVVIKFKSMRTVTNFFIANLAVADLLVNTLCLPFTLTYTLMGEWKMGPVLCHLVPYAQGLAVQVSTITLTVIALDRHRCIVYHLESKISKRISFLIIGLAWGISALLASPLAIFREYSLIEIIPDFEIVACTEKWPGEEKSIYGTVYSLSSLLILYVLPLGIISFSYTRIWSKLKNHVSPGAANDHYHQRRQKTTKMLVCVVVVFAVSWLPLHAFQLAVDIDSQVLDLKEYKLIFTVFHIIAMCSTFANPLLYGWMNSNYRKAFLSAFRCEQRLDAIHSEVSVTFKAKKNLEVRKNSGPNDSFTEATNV


Key:
Assay in all cases: cell-based or functional assay
[1] = molecular target: T1, human GIP receptor
[2] = molecular target: human GLP-1 receptor (human, UniProt P43220 24-463)
[3] = molecular target: T2, human neuropeptide Y2 receptor
[4] = molecular target: human GLP-1 receptor (human, UniProt P43220 24-463); remark: listed apart in the source

Binder	EC50, CreLuc reporter, 0.5% hP [1]	EC50, CreLuc reporter, 100% hP [1]	EC50, CreLuc reporter, 100% hP [2]	EC50, CreLuc reporter, 0.5% hP [3]	EC50, CreLuc reporter, 100% hP [3]	EC50, CreLuc reporter, 0.5% hP [2]	EC50, CreLuc reporter, 0.5% hP [4]
Y[Aib]EGTFTSDYSI[Aib]LEKQAQ[Aib]AFVRHLINK([AEEA-γGlu-γGlu-γGlu-γGlu-C18 diacid])[Aib]TRQRY-NH2 (N-terminus assumed; SMILES CC[C@H](C)[C@H](NC(=O)[C@H](CC(C)C)NC(=O)[C@H](Cc1c[nH]cn1)NC(=O)[C@H](CCCNC(=N)N)NC(=O)[C@@H](NC(=O)[C@H](Cc1ccccc1)NC(=O)[C@H](C)NC(=O)C(C)(C)NC(=O)[C@H](CCC(N)=O)NC(=O)[C@H](C)NC(=O)[C@H](CCC(N)=O)NC(=O)[C@H](CCCCN)NC(=O)[C@H](CCC(=O)O)NC(=O)[C@H](CC(C)C)NC(=O)C(C)(C)NC(=O)[C@@H](NC(=O)[C@H](CO)NC(=O)[C@H](Cc1ccc(O)cc1)NC(=O)[C@H](CC(=O)O)NC(=O)[C@H](CO)NC(=O)[C@@H](NC(=O)[C@H](Cc1ccccc1)NC(=O)[C@@H](NC(=O)CNC(=O)[C@H](CCC(=O)O)NC(=O)C(C)(C)NC(=O)[C@@H](N)Cc1ccc(O)cc1)[C@@H](C)O)[C@@H](C)O)[C@@H](C)CC)C(C)C)C(=O)N[C@@H](CC(N)=O)C(=O)N[C@@H](CCCCNC(=O)COCCOCCNC(=O)CC[C@H](NC(=O)CC[C@H](NC(=O)CC[C@H](NC(=O)CC[C@H](NC(=O)CCCCCCCCCCCCCCCCC(=O)O)C(=O)O)C(=O)O)C(=O)O)C(=O)O)C(=O)NC(C)(C)C(=O)N[C@H](C(=O)N[C@@H](CCCNC(=N)N)C(=O)N[C@@H](CCC(N)=O)C(=O)N[C@@H](CCCNC(=N)N)C(=O)N[C@@H](Cc1ccc(O)cc1)C(N)=O)[C@@H](C)O) [Compound 110]	–	3.8 nM	2.3 nM	14.2 nM	51.4 nM	0.7 nM	–
YXEGTFTSDYSIXLEKQAQXAFVRHLINKXTRQRY (Aib at 2, 13, 20, 30; ArgMe at 34; Lys29 epsilon-amino acylated with C18DA-gGlu-gGlu-gGlu-gGlu-gGlu-gGlu-eLys; C-terminal amide) [Compound 72]	–	–	–	–	–	–	0.6 nM
YXEGTFTSDYSEXLEKQAQXAFVRHLINKXTRQRY (Aib at 2, 13, 20, 30; Lys29 epsilon-amino: C18DA-gGlu-gGlu-gGlu-gGlu-gGlu-gGlu-eLys; C-terminal amide) [Compound 112]	0.5 nM	10.3 nM	31.6 nM	–	27.9 nM	–	–
YXEGTFTSDYSIXLDRQAQXAFVRHLINKXTRQRY (Aib at 2, 13, 20, 30; Lys29 epsilon-amino: C18DA-gGlu-gGlu-gGlu-gGlu-gGlu-gGlu-eLys; C-terminal amide) [Compound 147]	0.2 nM	5 nM	2.3 nM	11.1 nM	86.3 nM	0.3 nM	–
Y[Aib]EGTFTSDYSI[Aib]LEEQAQ[Aib]EFVRHLINK([γGlu-γGlu-γGlu-γGlu-C18 diacid])[Aib]TRQRY-NH2 (N-terminus assumed; SMILES CC[C@H](C)[C@H](NC(=O)[C@H](CC(C)C)NC(=O)[C@H](Cc1c[nH]cn1)NC(=O)[C@H](CCCNC(=N)N)NC(=O)[C@@H](NC(=O)[C@H](Cc1ccccc1)NC(=O)[C@H](CCC(=O)O)NC(=O)C(C)(C)NC(=O)[C@H](CCC(N)=O)NC(=O)[C@H](C)NC(=O)[C@H](CCC(N)=O)NC(=O)[C@H](CCC(=O)O)NC(=O)[C@H](CCC(=O)O)NC(=O)[C@H](CC(C)C)NC(=O)C(C)(C)NC(=O)[C@@H](NC(=O)[C@H](CO)NC(=O)[C@H](Cc1ccc(O)cc1)NC(=O)[C@H](CC(=O)O)NC(=O)[C@H](CO)NC(=O)[C@@H](NC(=O)[C@H](Cc1ccccc1)NC(=O)[C@@H](NC(=O)CNC(=O)[C@H](CCC(=O)O)NC(=O)C(C)(C)NC(=O)[C@@H](N)Cc1ccc(O)cc1)[C@@H](C)O)[C@@H](C)O)[C@@H](C)CC)C(C)C)C(=O)N[C@@H](CC(N)=O)C(=O)N[C@@H](CCCCNC(=O)CC[C@H](NC(=O)CC[C@H](NC(=O)CC[C@H](NC(=O)CC[C@H](NC(=O)CCCCCCCCCCCCCCCCC(=O)O)C(=O)O)C(=O)O)C(=O)O)C(=O)O)C(=O)NC(C)(C)C(=O)N[C@H](C(=O)N[C@@H](CCCNC(=N)N)C(=O)N[C@@H](CCC(N)=O)C(=O)N[C@@H](CCCNC(=N)N)C(=O)N[C@@H](Cc1ccc(O)cc1)C(N)=O)[C@@H](C)O) [Compound 129]	0.4 nM	7.1 nM	2.8 nM	213 nM	827 nM	0.9 nM	–
Y[Aib]EGTFTSDYSI[Aib]LEKQAQ[Aib]AFVRHLINK([γGlu-γGlu-γGlu-γGlu-γGlu-γGlu-C20 diacid])[Aib]TR[NMeQ]RY-NH2 (N-terminus assumed; SMILES CC[C@H](C)[C@H](NC(=O)[C@H](CC(C)C)NC(=O)[C@H](Cc1c[nH]cn1)NC(=O)[C@H](CCCNC(=N)N)NC(=O)[C@@H](NC(=O)[C@H](Cc1ccccc1)NC(=O)[C@H](C)NC(=O)C(C)(C)NC(=O)[C@H](CCC(N)=O)NC(=O)[C@H](C)NC(=O)[C@H](CCC(N)=O)NC(=O)[C@H](CCCCN)NC(=O)[C@H](CCC(=O)O)NC(=O)[C@H](CC(C)C)NC(=O)C(C)(C)NC(=O)[C@@H](NC(=O)[C@H](CO)NC(=O)[C@H](Cc1ccc(O)cc1)NC(=O)[C@H](CC(=O)O)NC(=O)[C@H](CO)NC(=O)[C@@H](NC(=O)[C@H](Cc1ccccc1)NC(=O)[C@@H](NC(=O)CNC(=O)[C@H](CCC(=O)O)NC(=O)C(C)(C)NC(=O)[C@@H](N)Cc1ccc(O)cc1)[C@@H](C)O)[C@@H](C)O)[C@@H](C)CC)C(C)C)C(=O)N[C@@H](CC(N)=O)C(=O)N[C@@H](CCCCNC(=O)CC[C@H](NC(=O)CC[C@H](NC(=O)CC[C@H](NC(=O)CC[C@H](NC(=O)CC[C@H](NC(=O)CC[C@H](NC(=O)CCCCCCCCCCCCCCCCCCC(=O)O)C(=O)O)C(=O)O)C(=O)O)C(=O)O)C(=O)O)C(=O)O)C(=O)NC(C)(C)C(=O)N[C@H](C(=O)N[C@@H](CCCNC(=N)N)C(=O)N(C)[C@@H](CCC(N)=O)C(=O)N[C@@H](CCCNC(=N)N)C(=O)N[C@@H](Cc1ccc(O)cc1)C(N)=O)[C@@H](C)O) [Compound 114]	0.5 nM	–	10 nM	82.1 nM	657 nM	1.8 nM	–
Y[Aib]EGTFTSDYSI[Aib]LEKQAQ[Aib]AFVRHLINK([dtOrn-γGlu-γGlu-γGlu-γGlu-γGlu-γGlu-C20 diacid])[Aib]TRQRY-NH2 (reading uncertain) [Compound 97]	–	12.7 nM	16.8 nM	11.7 nM	135 nM	3.8 nM	–

Next, values leading:

EC50, CreLuc reporter, 0.5% hP [1]	EC50, CreLuc reporter, 100% hP [1]	EC50, CreLuc reporter, 100% hP [2]	EC50, CreLuc reporter, 0.5% hP [3]	EC50, CreLuc reporter, 100% hP [3]	EC50, CreLuc reporter, 0.5% hP [2]	EC50, CreLuc reporter, 0.5% hP [4]	Binder
0.5 nM	10 nM	2.3 nM	75 nM	789 nM	–	–	Y[Aib]EGTFTSDYSI[Aib]LEEEAQ[Aib]EFVRHLINK([AEEA-AEEA-γGlu-C18 diacid])[Aib]TRQRY-NH2 (N-terminus assumed; SMILES CC[C@H](C)[C@H](NC(=O)[C@H](CC(C)C)NC(=O)[C@H](Cc1c[nH]cn1)NC(=O)[C@H](CCCNC(=N)N)NC(=O)[C@@H](NC(=O)[C@H](Cc1ccccc1)NC(=O)[C@H](CCC(=O)O)NC(=O)C(C)(C)NC(=O)[C@H](CCC(N)=O)NC(=O)[C@H](C)NC(=O)[C@H](CCC(=O)O)NC(=O)[C@H](CCC(=O)O)NC(=O)[C@H](CCC(=O)O)NC(=O)[C@H](CC(C)C)NC(=O)C(C)(C)NC(=O)[C@@H](NC(=O)[C@H](CO)NC(=O)[C@H](Cc1ccc(O)cc1)NC(=O)[C@H](CC(=O)O)NC(=O)[C@H](CO)NC(=O)[C@@H](NC(=O)[C@H](Cc1ccccc1)NC(=O)[C@@H](NC(=O)CNC(=O)[C@H](CCC(=O)O)NC(=O)C(C)(C)NC(=O)[C@@H](N)Cc1ccc(O)cc1)[C@@H](C)O)[C@@H](C)O)[C@@H](C)CC)C(C)C)C(=O)N[C@@H](CC(N)=O)C(=O)N[C@@H](CCCCNC(=O)COCCOCCNC(=O)COCCOCCNC(=O)CC[C@H](NC(=O)CCCCCCCCCCCCCCCCC(=O)O)C(=O)O)C(=O)NC(C)(C)C(=O)N[C@H](C(=O)N[C@@H](CCCNC(=N)N)C(=O)N[C@@H](CCC(N)=O)C(=O)N[C@@H](CCCNC(=N)N)C(=O)N[C@@H](Cc1ccc(O)cc1)C(N)=O)[C@@H](C)O) [Compound 130]
0.8 nM	14.8 nM	33.1 nM	16.3 nM	44.1 nM	7 nM	–	YXEGTFTSDYSAXLEKQAQXAFVRHLINKXTRQRY (Aib at 2, 13, 20, 30; Lys29 epsilon-amino: C18DA-gGlu-gGlu-gGlu-gGlu-gGlu-gGlu-eLys; C-terminal amide) [Compound 156]
–	0.8 nM	–	–	43.7 nM	0.1 nM	–	YXEGTFTSDYSIXLEKQAQXAFVRHLINKXTRQRY (Aib at 2, 20, 30; aMeL at 13; Lys29 epsilon-amino: C18DA-gGlu-gGlu-gGlu-gGlu-gGlu-gGlu-eLys; C-terminal amide) [Compound 119]
0.5 nM	–	13.7 nM	20.1 nM	46.4 nM	–	–	YXEGTFTSDYSIXLEKQAQXAFVRHLINKXTRQRY (Aib at 2, 13, 20, 30; Lys29 epsilon-amino: C18DA-TRX-gGlu-gGlu-gGlu-gGlu-gGlu-gGlu-eLys; C-terminal amide) [Compound 137]
